From publication PMC7026639
Read-outs that look alike come from different tables or passages of the source.

Key:
[1] = target: T1, HhaI restriction endonuclease (R.HhaI) (Haemophilus haemolyticus NEB129 (now …, UniProt A0ABF7PI58 1-258)); assay: X-ray crystallography
[2] = target: T1, HhaI restriction endonuclease (R.HhaI); assay: X-ray crystallography; remark: listed apart in the source

Row | Binder | binding result [1] | binding result [2]
1 | 14-bp cognate oligo (dsDNA) DNA 1: TCCAAGCGCAACAG DNA 2: CTGTTGCGCTTGGA | binds | –
2 | 13-bp iodo oligo (dsDNA, 5-iodo-uridine at positions 3 and 10 of strand 2 (printed as I, written as U)) DNA 1: TCCAAGCGCAACG DNA 2: CGUTGCGCTUGGA | – | binds
